We go through 3 molecules from PMC12408356 (Nature Microbiology, 2025).

The target in this assay is T1, JUNV GPC MC2-TS (wild-type Junin virus glycoprotein complex) (Junin virus, MC2 strain, UniProt P26313, myristoyl on G2 | N-linked glycans | N-linked glycans).
T1 construct: copies: 3 + 3 + 3
The assay can be described thus: flow cytometry on cells. The following applies: one partner purified.

T1 sequence (P26313 2-58, chain 1 of 3): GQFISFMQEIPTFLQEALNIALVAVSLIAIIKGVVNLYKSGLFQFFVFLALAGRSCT
T1 sequence (P26313 59-251, chain 2 of 3): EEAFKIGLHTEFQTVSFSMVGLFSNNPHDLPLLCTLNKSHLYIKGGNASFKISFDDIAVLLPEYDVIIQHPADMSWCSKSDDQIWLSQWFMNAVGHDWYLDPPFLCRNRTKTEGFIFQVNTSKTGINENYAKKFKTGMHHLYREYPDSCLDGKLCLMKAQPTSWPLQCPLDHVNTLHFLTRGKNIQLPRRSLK
T1 sequence (P26313 252-485, chain 3 of 3): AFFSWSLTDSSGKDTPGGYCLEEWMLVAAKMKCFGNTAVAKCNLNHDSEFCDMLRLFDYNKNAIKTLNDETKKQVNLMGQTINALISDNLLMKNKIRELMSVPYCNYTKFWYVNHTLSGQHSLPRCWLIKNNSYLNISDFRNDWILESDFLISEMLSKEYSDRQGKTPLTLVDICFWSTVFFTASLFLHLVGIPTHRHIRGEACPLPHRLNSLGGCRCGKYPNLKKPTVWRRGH

B1: CR1-10 (antibody, V domains shown)
VH: QVQLQESGPGLVKPSQTLSLTCSVSGGSIGGSSYYWSWIRHHPGKGLEWIGYINYRGITHYNAALKSRVSMSVETSQNHFSLQLTSVTAADTAVYYCARLTSDCSGGNCYQAFDYWGQGSLVSVS
VL: EIVLTQSPGTLSLSPGETATLSCRASQSVSSSYLAWYQQKPGQAPRLLIYGASGRATGIPDRFSGSGSGTDFTLTISRLEPEDFAVYYCQQYGRSGYTFGQGTKLEIK
Consider B1, for which the binding result is “binds”.

B2: CR1-07 (antibody, V domains shown)
VH: QVQLVESGGGVVHPGRSLRLSCAASGFTFGTSIMHWVRQAPGKGMQWVAQISHDESRKFYSDSVKGRFTVSRDNSKNTLFLEMSSLRIEDTAVYYCAKDLSPPYSYAWDIFQYWGQGSLVTVS
VL: DIVMTQSPESLAVSLGERATINCKSSQSVLYSSRSDNKDYLAWYQQKPGQSPKLLIYWASTRESGVPERFTGSGSGTDFTLSISSLQAEDVAVYYCQQYYSSPPTFGGGTKVELK
In the case of B2, the binding result was “binds”.

B3: CR1-28 (antibody, V domains shown)
VH: QVQLVESGGGVVQPGRSLRLSCAASGFTFSSSAMHWVRQAPGKGLEWVAVIWSDGSNENYADSVKGRFTISRDNSKNTLYLQMSSLRAEDTAVYYCATDKTYVSGYTSTWYYFNYWGQGTLVTVS
VL: DIQMTQSPSTLSASVGDRVTITCRASQSIDNWLAWYQQKPGKAPKLLIYTASRLESGVPSRFSGSGSGTEFTLTISSLQPDDFATYYCQHRTFGQGTKVEIK
For the molecule B3, the binding result is “binds”.
